Measured values from publication PMC3795062.

Target: endogenous β-catenin of HEK293 cells (human (endogenous in HEK293)) (UniProt P35222)
UniProt P35222, sequence (P35222 whole entry): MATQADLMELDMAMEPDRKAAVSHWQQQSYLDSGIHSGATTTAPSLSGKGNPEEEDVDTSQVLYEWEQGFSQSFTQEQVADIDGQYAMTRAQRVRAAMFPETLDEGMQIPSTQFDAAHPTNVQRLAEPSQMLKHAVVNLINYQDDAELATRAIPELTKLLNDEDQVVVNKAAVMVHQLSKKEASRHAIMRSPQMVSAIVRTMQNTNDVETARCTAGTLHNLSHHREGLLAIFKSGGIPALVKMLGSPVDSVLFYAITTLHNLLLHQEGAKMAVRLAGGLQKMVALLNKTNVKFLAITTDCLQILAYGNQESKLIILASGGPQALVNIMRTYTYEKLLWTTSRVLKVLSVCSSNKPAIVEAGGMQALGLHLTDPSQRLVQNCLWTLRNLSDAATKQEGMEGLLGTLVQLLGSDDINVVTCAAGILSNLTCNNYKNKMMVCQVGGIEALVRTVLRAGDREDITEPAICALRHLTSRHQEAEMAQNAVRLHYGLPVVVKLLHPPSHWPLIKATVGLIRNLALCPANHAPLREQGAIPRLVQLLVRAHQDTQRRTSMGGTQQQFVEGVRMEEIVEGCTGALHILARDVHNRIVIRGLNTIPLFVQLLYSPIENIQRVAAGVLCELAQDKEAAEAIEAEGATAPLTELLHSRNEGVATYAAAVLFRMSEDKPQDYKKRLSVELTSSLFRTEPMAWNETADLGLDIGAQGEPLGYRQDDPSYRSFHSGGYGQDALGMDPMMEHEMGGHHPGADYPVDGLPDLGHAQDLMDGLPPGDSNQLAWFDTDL

Substance: WT-Nef expressed in HEK293 cells (natural protein)
- inhibition of the TopFlash (TCF-luciferase) reporter, TopFlash/FopFlash ratio, HEK293 cells with Wnt-conditioned media, 50 ng Nef plasmid: 40%
